Tested on: MS2 coat protein
Assay: apparent KD of MS2 coat protein; designed switch direction (-1 OFF switch, 1 ON switch): 1; higher = weaker reporter binding
Summary of the method: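 The buffer was Tris-HCl pH 7.5 with KCl, MgCl2, BSA, DTT, tRNA and Tween-20. In it, SNAP-549-labelled MS2 coat protein was titrated in doubling steps from 0.7 or 1.5 nM to 3 µM over chip-bound RNA switches transcribed by stalled E. coli RNA polymerase on Illumina chips. Apparent KD is the per-design median over clusters of curve fits to normalised fluorescence.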

[1] = Eterna round: R95, input ligand: FMN 200 uM
[2] = Eterna round: R95, input ligand: microRNA oligo, concentration not stated
[3] = Eterna round: R95, input ligand: none
[4] = input ligand: microRNA oligo, concentration not stated

Sequence	apparent KD of MS2 coat protein [1] [nM]	apparent KD of MS2 coat protein [2] [nM]	apparent KD of MS2 coat protein [3] [nM]	apparent KD of MS2 coat protein (input ligand: FMN 200 uM) [nM]	apparent KD of MS2 coat protein [4] [nM]	apparent KD of MS2 coat protein (input ligand: none) [nM]
AUAAAACAUGAGGAUCACCCAUGUCUCUAAAGUCGAGGAUAUGGGCAAAUAAUAUAAGAACCAGAAGGCGAAUAAU [SS1 Teenbexe 3] (puzzle: Same State 1)	58.1	51.2	530	–	–	–
GCUCGACGUUCGGCCUACAUGAGGAUCACCCAUGUGACUGGGCAGGAUAUCUAAAUGCAGAAUGUAGAGAAGGGCCCGUCGAGC [SameState NG3 #51] (Eterna round: R96, puzzle: Same State NG 3)	–	–	–	168	43.4	190
AACAAUCUAUCUGAGGAUAUCAUGAAAAAAACAUGAGGAUCACCCAUGUGCAGGAAAACUGCAUAUGAGAAGGCAGAUAGAUUGA [SS2: 1101] (Eterna round: R96, puzzle: Same State 2)	–	–	–	–	490	–
GAGAGAGGGUGAGGAUAUUUAGUGAUAAUGAUGGGAGAAGGCACAGACAUGAGGAUCACCCAUGUGGGAAUAAUCCAGAGAGAG [Parity 10 - Jieux - Same State NG 1] (Eterna round: R96, puzzle: Same State NG 1)	–	–	–	145	92.7	232
UUUCGAUAGAUAGGAUAUCACCUUACAUGAGGAUCACCCAUGUUGGCCGUGCUGGUUAUUCAUACUGAGAAGGAUCUUGAUGAC [JR_SSNG2_Sub004] (Eterna round: R96, puzzle: Same State NG 2)	–	–	–	39.4	37	45
UGAAUAGUUACAGGAUAUGAUCCGAAAAUUGGGUCAGAAGGGUGGGUGUUGUGCGCUAUGUGCUACAUGAGGAUCACCCAUGUU [SameState NG1 #36] (Eterna round: R96, puzzle: Same State NG 1)	–	–	–	341	22.5	41.2
UUGUUUUGAAAUUAACAUGAGGAUCACCCAUGUCUUGACACAGAGGAUAUACAUGUUUGUUUGUAGUAGAAGGCUGUUUAUUGU [JR_SSNG3_Sub097] (Eterna round: R96, puzzle: Same State NG 3)	–	–	–	57	98	135
UUCCCAUCGGGAGGAUAUGGAACCUUAUUGGUUCUAGAAGGUCCAACAUGAGGAUCACCCAUGUGGGAGUGGUCUAAUGACCAC [SS NG10LRO02] (Eterna round: R96, puzzle: Same State NG 1)	–	–	–	117	141	159
CGCAACGGCUGAGGAUAUGUCAACACGGGACGGGCAGAAGGUAGCAACCACCCACAUGAGGAUCACCCAUGUAUCCAAAUUCAC [Eternabot solution 38] (Eterna round: R96, puzzle: Same State NG 1)	–	–	–	48.9	41.5	42.3
UGUCCAGCCUGAGCUGGACAAAAGCAUGUACAUGAGGAUCACCCAUGUUCAUGUACAAGCUUUUUGCUCGUCUUAGA [salish99_208a_r3_064] (puzzle: Sensor for hsa-mir-208a)	480	15.8	587	–	–	–
CGGCUCCGUGGAGGAUAUGGGCCUGCCCGGGAUACCGGGCCUAACACAUGAGGAUCACCCAUGUCCCAGAAGGCCGCUGGAGCC [Cebeladi] (Eterna round: R96, puzzle: Same State NG 2)	–	–	–	12.7	26.2	52.3
GGAGGACAUGAGGAUCACCCAUGUGGAUGGGCGCUAGGAUAUGCGAGAGGGUGGAGAGAAGCAGAAGGAGUGGAUA [JR_SS1_Sub038] (puzzle: Same State 1)	76.7	62.9	75	–	–	–
GGUCGGACUCACAUGAGGAUCACCCAUGUUGCGGAAACGCCACAGGAUAUCUGUCCGAAAAGGUCAGAGAAGGGUGAACCGACC [Fiskers NG3ss - 63] (Eterna round: R96, puzzle: Same State NG 3)	–	–	–	1460	35.8	214
GAGGCACAUGAGGAUCACCCAUGUGGGUAGAACAUAGGAUAUCACCAACAAAUUACCCGGUGAGAAGGAUGAUGCC [Zalaarza] (puzzle: Same State 1)	–	151	–	–	–	–
AGUGGAGCCUGAGCUCCACAAAAGCAUGUACAUGAGGAUCACCCAUGUCAUGUACAAGCUUUUUGCUCGUCUUAAAA [Mat - hsa-mir-208a - Mod of JL - D18] (Eterna round: R96, puzzle: Sensor for hsa-mir-208a)	–	–	–	552	14	502
GGUGCCAAUAAAGCCUACAUGAGGAUCACCCAUGUAUGUAGGCAGGAUAUCGUUUGCUUUGCAAACGAGAAGGGCCGAGGCACC [JL SSNG3 1.19] (Eterna round: R96, puzzle: Same State NG 3)	–	–	–	20.4	25.1	42.7

Sequence	apparent KD of MS2 coat protein [1] [nM]	apparent KD of MS2 coat protein [2] [nM]	apparent KD of MS2 coat protein [3] [nM]	apparent KD of MS2 coat protein (input ligand: FMN 200 uM) [nM]	apparent KD of MS2 coat protein [4] [nM]	apparent KD of MS2 coat protein (input ligand: none) [nM]
UUAUCUAUCCGAGGAUAUCCAUAUAAUUUACAUGAGGAUCACCCAUGUUAUUGGGAGUUUUUUUAGGAGAAGGCGGAUGUAGAU [JR_SSNG2_Sub052] (Eterna round: R96, puzzle: Same State NG 2)	–	–	–	82.5	79.2	107
UCUAGACAUGAGGAUCACCCAUGUCGAUAUGACACAGGAUAUCGGUACUCAUAGAGUACGCGAGAAGGGUGACUUC [Same State 1 - Mod of Vinnie Gere v.3] (puzzle: Same State 1)	112	115	166	–	–	–
GCCAUCGAGUGAGGAUAUGGCACCGUUUCGGUGCCAGAAGGCAUGUCAAUUGACAUGAGGAUCACCCAUGUAUUAUCGAUGGCA [JL Fiskers NG1ss - 33 mod 4] (Eterna round: R96, puzzle: Same State NG 1)	–	–	–	75.4	556	835
AACGGUGCUUGAAAUAGUCACAUGAGGAUCACCCAUGUUAGGCAGGAUAUGUGUCUAAGACGACCGCAGAAGGGCUCAAGCGAU [Eternabot solution 41] (Eterna round: R96, puzzle: Same State NG 3)	–	–	–	49.5	26.9	34.6
UGUUGUAUUACAGGAUAUCUAGUAUUGUUAUUUAGAGAAGGGUAUUCACAUGAGGAUCACCCAUGUAUAUACGAGGAAGUUGUG [JMF's solution 40] (Eterna round: R96, puzzle: Same State NG 1)	–	–	–	–	28.8	–
CAGCUCGUGUGAGGAUAUGCCGCCGUUUCGGCUGCAGAAGGUGCUACGUUACAUGAGGAUCACCCAUGUCUCUGUUGUUUCGUC [salish99_SSNG1_r04_962] (Eterna round: R96, puzzle: Same State NG 1)	–	–	–	28.6	19.1	31.8
AAUAAUUUACAUGAGGAUCACCCAUGUGGUAAACAUGCUUUUUGCUCGUCUUAUGGUUUUUUUUUUUUUUUUUUUUU [viviankchen1] (puzzle: Sensor for hsa-mir-208a version 2)	91	49.6	130	–	–	–
UAGUACAUGCUUUUUGUCUGUCUUAGAUAACAUGAGGAUCACCCAUGUAAGGUGAAAGUUAUAUAGUUUAUGAAUAU [JR_SHM208A_Sub058] (puzzle: Sensor for hsa-mir-208a)	188	346	264	–	–	–
AUUAAACAUGAGGAUCACCCAUGUCAACAAAGUCGAGGAUAUGGGCAAAUAAUAUAAGAACCAGAAGGCGAAUAAU [salish99_ss1_r3_058] (puzzle: Same State 1)	32.1	440	275	–	–	–
GUUAGGAAUCUAGCAAACAUGAGGAUCACCCAUGUAAGUGGGAAGGAUAUGGUACAGAAACUGUACCAGAAGGUCUUAUUGUUU [Omei SS(NG) 3 AV8] (Eterna round: R96, puzzle: Same State NG 3)	–	–	–	602	17.5	280
AAUUUUAAACAUGAGGAUCACCCAUGUGUUAUAUAAGCAAAUAAAUAAAUAAAUAAAUAAAUAAAUAAAUAAAUAAA [RNA Sequence] (puzzle: Sensor for hsa-mir-208a version 2)	34.1	40.2	44.5	–	–	–
GUUACAUGAGGAUCACCCAUGUAUGUGUGGGAGUAAGUGUCUUAGGAUAUCUAUCAUUUAAUGUAAGAGAAGGAAGAUUGUUGU [JMF's solution 97] (Eterna round: R96, puzzle: Same State NG 3)	–	–	–	122	106	118
CUGAAAUGUCAAGGAUAUCACGUCGAUUAGACGUGAGAAGGUGAUCUGCACAUGAGGAUCACCCAUGUGUUACAUGGAAAUCAG [Brourd's SSNG1/1-A2 mod 14] (Eterna round: R96, puzzle: Same State NG 1)	–	–	–	312	581	964
CGUAGGUGGCUGGAGGAUAUUCGAGUGGUAACAUGAGGAUCACCCAUGUGUCGCGCGGUACAUGAGGAGAAGGCUGGCGGCCUGC (puzzle: Same State 2)	19.7	69.4	178	–	–	–
UUAUAACAUGAGGAUCACCCAUGUCAACAAAGUCGAGGAUAUGGGCAAUUAUUAUUAGAACCAGAAGGCGAAAAUU [Mat - Same State 1 - Mod of UCT - D29] (puzzle: Same State 1)	52.1	227	587	–	–	–
